Paper PMC3128532

Target: MBP-tagged TANGO1-Coil2 (amino acids 1440-1650) (human) (UniProt Q5JRA6)
Assay: pull-down

Chain of UniProt Q5JRA6 (Q5JRA6 1440-1650): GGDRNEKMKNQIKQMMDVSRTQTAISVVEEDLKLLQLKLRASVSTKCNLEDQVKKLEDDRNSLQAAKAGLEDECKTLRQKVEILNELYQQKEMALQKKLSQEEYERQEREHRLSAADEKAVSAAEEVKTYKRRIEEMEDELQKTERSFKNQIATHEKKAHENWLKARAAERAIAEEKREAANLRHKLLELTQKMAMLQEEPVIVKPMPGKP

stoichiometry N: 1
Substance: ColdTF-tagged cTAGE5-Coil2 (amino acids 301-650) (domain or fragment)
